Test results: publication PMC11162469, “Discovery of RXFP2 genetic association in resistant hypertensive men and RXFP2 antagonists for the treatment of resistant hypertension” (Scientific Reports, 2024)

Legend:
[1] = biological target: T1, human LDLa-linker protein (huRXFP2-LDLa-linker(38-105)) (Homo sapiens, UniProt Q8WXD0); experiment: SPR; Biacore S200; goat anti-rat Fc gamma immobilised on a Series S CM5 chip, purified recombinant rat anti-RXFP2 antibodies captured at 5 µg/mL; rat or human LDLa-linker protein flowed as analyte at 20, 10, 5, 2.5, 1.75 and 0 nM; 1:1 fit model; conditions: both partners purified
T1 construct: relaxin family peptide receptor 2 (RXFP2), human, LDLa module and linker, residues 38-105; Expressed as LDLa-linker, enterokinase site, rat Fc, 8xHis; The Biacore methods say only 'LDLa-linker protein'; also called human LDLa-linker domain; source: Expi293, transfected, purified (Histrap excel, SEC); enterokinase digestion, Hispur Ni resin, Superdex 200; not shown: rat Fc, C-terminal, cleaved; …

[2] = biological target: T2, rat LDLa-linker protein (ratRXFP2-LDLa-linker(20-88)) (Rattus norvegicus, UniProt Q5ECL0); experiment: as above; conditions: both partners purified
T2 construct: relaxin family peptide receptor 2 (RXFP2), rat, LDLa module and linker, residues 20-88; Expressed as LDLa-linker, enterokinase site, rat Fc, 8xHis; The Biacore methods say only 'LDLa-linker protein'; also called rat LDLa-linker domain; source: Expi293, transfected, purified (Histrap excel, SEC); enterokinase digestion, Hispur Ni resin, Superdex 200; not shown: rat Fc, C-terminal, cleaved; 8xHis, …
T2 sequence (Q5ECL0 entry or part of it): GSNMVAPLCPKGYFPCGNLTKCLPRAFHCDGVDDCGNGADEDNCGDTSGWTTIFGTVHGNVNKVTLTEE

T1 sequence (Q8WXD0 38-105): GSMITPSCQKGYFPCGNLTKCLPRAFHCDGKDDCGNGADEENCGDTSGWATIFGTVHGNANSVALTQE

Kd [2] [nM]	Binder	binding result [1]
4.23	RXFP2 mAb 4A5 (antibody, V domains shown, heavy chain variable domain; rat IgG2b heavy chain constant region (rat IgG2b backbone, in-house construct); Recombinant in a rat IgG2b backbone; found as a mouse hybridoma clone; source: Expi293, transfected, purified (Protein G)) VH: DVQLVESGGGLVQPGGSRKLSCAASGFTFSTFGMHWVRQAPEKGLEWVAYISSGSSTIYYADTVKGRFTISRDNPKNTLFLQMTSLRSDDTAMYYCSRSYYGSAHYFDYWGQGTTLTVSS VL: DIQMTQSPASLSVSVGETVTITCRASENIYSNLAWYQQKQGKSPQLLVYVATNLADGVPSRFSGSGSGTQYSLRINNLQSEDFGNYYCQHFWGTPPTFGGGTKLEIK	no binding (tested: 20 nM (highest analyte concentration))
1.01	RXFP2 mAb 4H1 (antibody, V domains shown, heavy chain variable domain; rat IgG2b heavy chain constant region (rat IgG2b backbone, in-house construct); Recombinant in a rat IgG2b backbone; found as a mouse hybridoma clone; source: Expi293, transfected, purified (Protein G)) VH: QIQLVQSGPELKKPGETVKISCKTSGYTFTKYPMHWVKQAPGEGLKWMGWINTYSGLPTFADDFKGRFAFSLETSANTADLQINNLKNEDMATYFCAREGKKLSGYFDYWGQGTTLTVSS VL: DIKMTQSPSSMYASLGERVTITCKASQDINSYLTWFQQKPGQSPKTLIYRANRFVDGVPSRFSGSGSGQDYSLTITSLEYEDMGIYYCLQYDEFPYTFGGGTQLEIK	no binding (tested: 20 nM (highest analyte concentration))
0.69	RXFP2 mAb 1F2 (antibody, V domains shown, heavy chain variable domain; rat IgG2b heavy chain constant region (rat IgG2b backbone, in-house construct); Recombinant in a rat IgG2b backbone; found as a mouse hybridoma clone; source: Expi293, transfected, purified (Protein G)) VH: QVQLKQSGPGLVQPSQSLSITCTVSGFSLTAYGVNWVRQSPGKGLEWLGVIWSGGNTDYNAPFISRLSITKDNSKSQVFFKMNSLEADDTAIYYCARAKGYYAMDYWGQGTSVTVSS VL: DIQMTQSPASLSVSVGESVTITCRATENIYSNLVWYQQKQGQSPQLLVYAVTSLADGVPSRFSGSGSGTQYSLKINSLQSEDFGTYYCQHFWGTPYTFGGGTKLEIK	no binding (tested: 20 nM (highest analyte concentration))
0.52	RXFP2 mAb 2D4 (antibody, V domains shown, heavy chain variable domain; rat IgG2b heavy chain constant region (rat IgG2b backbone, in-house construct); Recombinant in a rat IgG2b backbone; found as a mouse hybridoma clone; source: Expi293, transfected, purified (Protein G)) VH: QVQLKESGPGLVAPSQSLSITCTVSGFSLTTYGISWVRQPPGKGLEWLGVIWTGGGTNYNSALKSRLSISKDNSKSQVFLKMNSLQTDDTARYYCARTEGYYVMDYWGQGTSVTVSS VL: DIQMTQSPASLSVSVGETVTITCRASENIYSNLVWYQQKQGKSPQLLVYAATNLADGVPSRFSGSGSGTQYSLKINNLQSEDFGTYYCQHFWGPPWTFGGGTKLEIK	no binding (tested: 20 nM (highest analyte concentration))
1.89	RXFP2 mAb 3H1 (antibody, V domains shown, heavy chain variable domain; rat IgG2b heavy chain constant region (rat IgG2b backbone, in-house construct); Recombinant in a rat IgG2b backbone; found as a mouse hybridoma clone; source: Expi293, transfected, purified (Protein G)) VH: QVQLKETGPGLVAPSQSLSITCTVSGFSLTNYGVNWVRQPPGKGLEWLVVIWSDGSTNYNSALKSRLSISKDNSKSQVFLKMNSLQTDDTAMYYCARQQGYYAMDYWGQGTSVIVSS VL: DIQMTQSPASLSVSVGETVTITCRASENIYSNLAWYQQKQGKSPQLLVYAVTNLADGVPSRFSGSGSGTQYSLKINSLQSEDFGSYYCQHFWGPPYTFGGGTKLEIK	no binding (tested: 20 nM (highest analyte concentration))
0.35	RXFP2 mAb 4H5 (antibody, V domains shown, heavy chain variable domain; rat IgG2b heavy chain constant region (rat IgG2b backbone, in-house construct); Recombinant in a rat IgG2b backbone; found as a mouse hybridoma clone; source: Expi293, transfected, purified (Protein G)) VH: QVQLKQSGPGLVQPSQSLSITCTVSGFSLTNYGVHWVRQSPGKGLEWLGVIWRDGNTDYNAAFMSRLSITKDNSKSQVFFEMNSLQVDDTAIYYCCRGDGYYAMGYWGQGTSVTVSS VL: DIQMTQSPASLSVSVGETVTITCRASENIYSNLAWYQQRQGRSPQLLVYAATNLADGVPSRFSGSGSGTQYSLKINSLQSEDFGNYYCQHFWGSPRTFGGGTKLEIK	no binding (tested: 20 nM (highest analyte concentration))
1.24	RXFP2 mAb 3F1 (antibody, V domains shown, heavy chain variable domain; rat IgG2b heavy chain constant region (rat IgG2b backbone, in-house construct); Recombinant in a rat IgG2b backbone; found as a mouse hybridoma clone; source: Expi293, transfected, purified (Protein G)) VH: QVQLKESGPGLVAPSQSLSITCTVSGFSLTDYGVSWIRQPPGKGLEWLGVIWGGGSTDYNPALKSRLSISKDNSKSQVFLKMNSLQADDTAMYYCVKHEGYYAMDYWGQGTSVTVSS VL: DIQMTQSPASLSVSVGETVTITCRASENIYSNLAWYQQKQGKSPHLLVYAVTNLADGVPSRFSGSGSGTQYSLKINSLQSEDFGSYYCQHFWGTPYTFGGGTKLEIK	no binding (tested: 20 nM (highest analyte concentration))
0.55	RXFP2 mAb 4B8 (antibody, V domains shown, heavy chain variable domain; rat IgG2b heavy chain constant region (rat IgG2b backbone, in-house construct); Recombinant in a rat IgG2b backbone; found as a mouse hybridoma clone; source: Expi293, transfected, purified (Protein G)) VH: QVQLKQSGPGLVQPSQSLSITCTVSGFSLSRYGVHWVRQSPGKGLEWLGVIWSGGSTEYNAVFKSRLSISKDNSKSQVFFKMNSLQANDTAIYYCVRADGYYAMEYWGQGTSVTVSS VL: DIQMTQSPASLSVSVGETVTITCRASENIYSNLAWYQQKQGKSPQLLVYAVTNLADGVPSRFSGSGSGTQYSLKINSLQSEDFGNYYCQHFWGTPYTFGGGTKLEIK	no binding (tested: 20 nM (highest analyte concentration))
